# T1: hKCNQ1EM (human KCNQ1, residues 76-620) (human, UniProt P51787-1 76-620)
# T1 sequence (looked up): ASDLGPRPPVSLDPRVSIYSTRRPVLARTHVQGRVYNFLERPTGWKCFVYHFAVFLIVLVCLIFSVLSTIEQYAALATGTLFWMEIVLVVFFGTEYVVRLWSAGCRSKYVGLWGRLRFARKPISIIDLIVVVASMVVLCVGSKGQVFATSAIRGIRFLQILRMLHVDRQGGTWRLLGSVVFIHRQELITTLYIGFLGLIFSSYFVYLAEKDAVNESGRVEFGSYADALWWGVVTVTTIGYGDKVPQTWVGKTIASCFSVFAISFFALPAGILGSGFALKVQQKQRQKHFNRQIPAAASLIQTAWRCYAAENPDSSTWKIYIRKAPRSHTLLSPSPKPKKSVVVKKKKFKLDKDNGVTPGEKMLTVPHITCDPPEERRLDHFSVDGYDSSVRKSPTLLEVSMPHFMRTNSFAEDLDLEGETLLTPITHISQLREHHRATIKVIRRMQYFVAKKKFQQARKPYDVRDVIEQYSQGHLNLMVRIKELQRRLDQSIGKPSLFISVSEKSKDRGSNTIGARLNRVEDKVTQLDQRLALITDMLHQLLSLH
# B1: KCNE3 (full-length human, N-terminal mCherry2) (natural protein, UniProt Q9Y6H6 1-103, looked up)
# chain: METTNGTETWYESLHAVLKALNATLHSNLLCRPGPGLGPDNQTEERRASLPGRDDNSYMYILFVMFLFAVTVGSLILGYTRSRKVDKRSDPYHVYIKNRVSMI
# Target: T1, hKCNQ1EM (human KCNQ1, residues 76-620)
# Test: cryo-EM structure
binder,measurement,value
B1,stoichiometry N,4 KCNE3 per KCNQ1 tetramer

# Source: PMC7083075 (Cell, 2019)
